# B1: StrepMSMEG_0243 (truncated MSMEG_0243 lacking the predicted signal peptide) (natural protein, Mycobacterium smegmatis mc2155, UniProt A0QP20 26-116, looked up)
# chain: DPAPNPPNCTAADLAGVASGVSAGTSAYLFTHPQVNDFFTSLEGLPREEVKPKVADYLAANPQVKDELTAVRQPLVDLKNRCGTAPAPELP
# notes: truncated version lacking the predicted signal peptide (predicted cleavage site between pos. 25 and 26: ALA-DP); The methods name the vector once as pET-22(b)+ and once as pET-28(b)+; vector-derived residues may be present; also called apo-MSMEG_0243; source: E. coli Bl21 Rosetta, purified (Streptavidin beads, size exclusion chromatography)
# Biological target: the molecule itself
# Experiment: SEC; HiLoad Superdex 200 PG, 20 mM Tris-HCl, 100 mM NaCl, pH 7.4; apo protein after Strep-tag purification; elution profile overlaid with that of a protein of known size (25.0 kDa)
protein,measurement,value
B1,stoichiometry N,2
